Results from paper doi:10.1101/2020.05.06.080622.
Like-named read-outs stand apart in the source and are kept apart here.

Tests used:
Experiment in all cases: EMSA
G4P (HIS-G4P-3xFLAG) [1] = target: T1, G4P (HIS-G4P-3xFLAG) (artificial (RHAU-derived), UniProt Q9H2U1 53-75+=GTGSGAGTGSGAGTGSGA+53-75, internal_change)
T1 sequence: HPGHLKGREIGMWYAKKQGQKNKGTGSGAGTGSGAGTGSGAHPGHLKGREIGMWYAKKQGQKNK

G4P (HIS-G4P-3xFLAG) [2] = target: T1, G4P (HIS-G4P-3xFLAG); remark: listed apart in the source
G4P (HIS-G4P-3xFLAG) [3] = target: T1, G4P (HIS-G4P-3xFLAG); remark: listed apart in the source

## GGGGCCGGGGCCGGGGCCGGGGCC (structured_DNA) [C9orf72]
G4P (HIS-G4P-3xFLAG) [1]
  binding result: binds

## AAGGGAGGGCGGCGGGGCAGGGA (structured_DNA) [PDGFR-β]
G4P (HIS-G4P-3xFLAG) [2]
  binding result: binds

B1: dsCSTB (dsDNA)
DNA 1: CCTGAAGCAGACAGCTAGTGAATTCGGGGCGGGGCGCGGGGCGGGGTACTTGCGTATAACTGTTCCATAGT
DNA 2: ACTATGGAACAGTTATACGCAAGTACCCCGCCCCGCGCCCCGCCCCGAATTCACTAGCTGTCTGCTTCAGG
G4P (HIS-G4P-3xFLAG) [3]
  binding result: binds
